Assay results as given in paper PMC13225219.

Molecular target: GST-Drak (435-532) (Drosophila melanogaster) (UniProt Q0KHT7)
Assay: pull-down; GST-Drak on glutathione agarose; 100 µl of 0.2-10 µM Filamin fragment, 20 min on ice in 20 mM Tris-HCl pH 7.5, 100 mM NaCl, 1 mM DTT; washed with PBS; stain-free SDS-PAGE, Filamin to Drak band ratio

Sequence of UniProt Q0KHT7 (Q0KHT7 435-532): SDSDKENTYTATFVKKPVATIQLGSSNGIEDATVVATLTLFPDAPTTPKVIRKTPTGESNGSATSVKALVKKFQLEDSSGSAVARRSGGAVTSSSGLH

Filamin-open (five-domain Drosophila Filamin fragment Cher15-19openMSR) (domain or fragment)
fold bound against the wild-type Filamin fragment: 10 fold
